The nature of this data set: soluble on expression in E. coli; label from the status in PepcDB or PDB records.
For the sequence “MAHHHHHHMDSIVLPGEALGSCDAYVSGENTYSLQKEVRSAILGRRQLTTNGDGKQVISVANTKEFIPLPQVGDLVTCKVYRVTFNLIYCNIILLNSKAVRNSFRAFINKSDIHVYEGELGDNFECFKQGDIIRAKVLSVAQHGSYKLSTVGSDLGVILALSDGGERKRGKKQKKTKKQKKKKKKKEP”, the “soluble on expression in E. coli” value is reported as “not soluble”. Consider “MKFALQINEGPYQHQASDSAYQFAKAALEKGHEIFRVFFYHDGVNNSTRLTTPPQDDRHIVNRWAELAEQYELDMVVCVAAAQRRGIVDEGEASRNGKDATNIHPKFRISGLGQLVEAAIQADRLVVFGD”, for which the “soluble on expression in E. coli” value is on record as “soluble”. Take “MSTASGITMASMSTYAILGCGSVGHAVAEELVEEGKDVLILDADEGRVEALRDQDLNAQQADICETDVAQTVADRDVVLIMSPDVNANAEAVRNIRESGGEQFIVARADDPVSADDLTELGADVVINPSAVIADSALRALETGELEYKASQLGDVIDGTEERMAILIHRSPDPDSIASAAALRAIAASRDVDADIIYEGEIGHQENRAFVNLLGIELTSNEDVNLDEYDTFALVDVAKGGEPAVESVDIVIDHYEHEHELEHDAAFSDIRPNISATSTILTKYIQELDLNLDQSVATALLYGIRAETLDFKRDTTPADLTAAAYLYPFADHDTLEQVESPSMSPETLDVLAEAIRNREVQGSHLVSNAGFIRDRDALAQAAQHLLNLEGITTTAVFAIADDTIYLAARSKDIRMNIGKVLSDAFGGMGETAGHSTDASVEIPLGIFTGLDTSDDNRDTLLELTEEAVKRKLFEAMGVDSSSSESSNGN”: the “soluble on expression in E. coli” value was “not soluble”. On to “MNPDLRKERASATFNPELITHILDGSPENTRRRREIENLILNDPDFQHEDYNFLTRSQRYEVAVKKSATMVKKMREYGISDPEEIMWFKNSVHRGHPEPLDLHLGMFLPTLLHQATAEQQERFFMPAWNLEITGTYAQTEMGHGTHLRGLETTATYDPKTQEFILNSPTVTSIKWWPGGLGKTSNHAIVLAQLITQGECYGLHAFVVPIREIGTHKPLPGITVGDIGPKFGYEEMDNGYLKMDNYRIPRENMLMKYAQVKPDGTYVKPLSNKLTYGTMVFVRSFLVGNAAQSLSKACTIAIRYSAVRRQSEIKQSEPEPQILDFQTQQYKLFPLLATAYAFHFVGRYMKETYLRINESIGQGDLSELPELHALTAGLKAFTTWTANAGIEECRMACGGHGYSHSSGIPNIYVTFTPACTFEGENTVMMLQTARFLMKIYDQVRSGKLVGGMVSYLNDLPSQRIQPQQVAVWPTMVDINSLEGLTEAYKLRAARLVEIAAKNLQTHVSHRKSKEVAWNLTSVDLVRASEAHCHYVVVKVFSDKLPKIQDKAVQAVLRNLCLLYSLYGISQKGGDFLEGSIITGAQLSQVNARILELLTLIRPNAVALVDAFDFKDMTLGSVLGRYDGNVYENLFEWAKKSPLNKTEVHESYHKHLKPLQSKL”, for which the “soluble on expression in E. coli” value is “soluble”.

Regarding “MAWPDLDPPRLAERPLSLQEALFVLEAPPEALPALAEAAIRVKEYFFGRRLKLVRLLNVKSGFCPEDCAYCAQSARSQAAIARYPLLSLEEILERAEEAQRLSARRFCLVAALRGPTPKVLERLGEAAQAIKARFPLELCASLGLLEEGMAEALKAAGFDYYNHNLNTVPSLYPRIATTHTYQDRLWTLKRAREAGLKLCSGVILGMGEGPKEVYEMALALRELGVESLPVNFLLPIPGTPLGDGRTVAGLTPERALKALILFRLLNPKAELRASAGRERYLGPYEPLAFRMVNSIFLQGYLTQPGSPWERDRALWESLDLDVEEGACG”, the “soluble on expression in E. coli” value is “soluble”. Next, “MKTIIREMVETIKQLFAQKQQMQEPVVANYEVSEIVEQKTLKKKEESEKTGEKTGKSNKWSQSLTLQLKEYLNDNFDFRYNNLTGATEYREKSGKNCFRPIDEREMNGMIVDARLEGIPCWRGDVPTMVLSNKVESYNPFHLYVKELPGWDGVDRVTPLLLRVSDNEIWLRGGRCWLRAMLSQWSGEERLHANVLTPVLISGKQGLSKSTFCRLLMPDSLRHYFIDNLNLAAGSSPEKKLVKNGLINLDEFDKIKESQQATLKNLLQMVNVPVFRGKRLGWVNESRLASFIATTNVYQVLIDSTGSRRFLCVEVLKPISEEPLEHKQIYAQLKEELKSGAPDYLNKEEEKALQKHNKAYYRQSLLEDVFHCCFRHPLETEKGIWLTTAEIFQVMRKFNSAALKEVSARQLGLKLSAMGYMAKHTSFGNRYYVFNLSAEKKDASL”: “not soluble”; “MNLKPHCLALALACAGLAGPLPALAATPAAAQSAPVTVLASLPVTHALAERLLRDTEVKLQRVAPANLPASRQASFFAGRGAGGLAKAAGQADAVIDLRSIWSDDPLYPLARRSNIRIVEIDAARPVDGALPGIALRPGSDLHAYPWLNPTNLGRMADVLASDLERLAPGAAATIQANLATLKKQLLEATASNETRLAKADNLSVISLSERLGYLLAGLNLDPLDVEIQADDGWTETNIQAFAEELKSEDIALVLHHRQPPKPLADAIAASGARLIVVDTEAADPVAGLESDMKAIVEGLLAGKG”: “not soluble”. For the sequence “NIQYEERVSVQADLGSQTLHVRGLIDSGNQLYDPLTKTPVMIIYIDKLEPIFGTAETMIIRNTDPLEAIEQLDDSFRFLDKMRLIPYRGVGQQNQFLLCVKPDHVTIMTKEEMISADKCLIGISTTKLSADGEFDAIIHPKMLSGKAVKH”, the “soluble on expression in E. coli” value is “not soluble”. The result for “MTEVLIKVDLNQPVTENEQIHNRWHPDIPMACWVKPGEDFILETYDWTAGAIKNNDDASDVRDVDLSTVHYLSGPVGVHGAEPGDLLVVDLLDIGARADSQWGFNGFFSRQNGGGFLTDHFPMAQKAIWDFKGMMTSSRHIPGVEFAGLIHPGLIGCLPDHKMLAEWNRREQELIDTDPGRVPPLANPPHAKTAHLGKMKGGPERDLAAATGARTVPPREHGGNCDIKDLSRGSKVFFPVYVDGAGLSVGDLHFSQGDGEITFCGAIEMAGWVHMRVELIKGGMAKYGIKNPVFKPSPIVPTYNKYLIFEGISVDESGQQHYLDVNVAYRQACLNAINYMTKFGYSPAQGYALLGSAPVQGHISGIVDIPNACATLWLPTEIFKFDINPNADGPTRFIDGSIDLPIAPDKLEHHHHHH” reads “not soluble”. For the sequence “MGSDKIHHHHHHMMKKKWYIVLTMSGYEEKVKENIEKKVEATGIKNLVGRIVIPEEVVLDATSPSERLILSPKAKLHVNNGKDVNKGDLIAEEPPIYARRSGVIVDVKNVRKIVVETIDRKYTKTYYIPESAGIEPGLRVGTKVKQGLPLSKNEEYICELDGKIVEIERMKKVVVQTPDGEQDVYYIPLDVFDRDRIKKGKEVKQGEMLAEARKFFAKVSGRVEVVDYSTRKEIRIYKTKRRKLFPGYVFVEMIMNDEAYNFVRSVPYVMGFVSSGGQPVPVKDREMRPILRLAGLEEYEEKKKPVKVELGFKVGDMVKIISGPFEDFAGVIKEIDPERQELKVNVTIFGRETPVVLHVSEVEKIE”, the “soluble on expression in E. coli” value was “not soluble”.

Regarding “MAHHHHHHSLCPCPHSQAQGETDGEAEWHNAALDFTHAMSYGDYLKLDKVLDAQFPLSPDHNEMLFIIQHQTSELWMKLMLHELRAAREHVKSGKLGPALKMLARVSRIFDQLVHAWAVLATMTPTEYNTIRPYLGQSSGFQSYQYREIEFILGNKNATLLKPHAHRAELLAALEQALHTPSLYDEAIRLMAAQGLPVSQERLARDAAAGTCYEASVEAAWRQVYQAPERYWDLYQLAEKLIDLEDSFRQWRFRHVTTVERIIGFKPGTGGTEGVGYLRSMLDTILFPELWRLRSNEG”, the “soluble on expression in E. coli” value is “soluble”. The result for “MPITIGRGFLKSEMFSQSAISQRSFFTLLWEKIKDFFCDTQRSTADQYIKELCDVASPPDAQRLFDLFCKLYELSSPSCRGNFHFQHYKDAECQYTNLCIKDGEDIPLCIMIRQDHYYYEIMNRTVLCVDTQSAHLKRYSDINIKASTYVCEPLCCLFPERLQLSLSGGITFSVDLKNIEETLIAMAEKGNLCDWKEQERKAAISSRINLGIAQAGVTAIDDAIKNKIAAKVIENTNLKNAAFEPNYAQSSVTQIVYSCLFKNEILMNMLEESSSHGLLCLNELTEYVALQVHNSLFSEDLSSLVETTKNEAHHQSLEHHHHHH” reads “not soluble”. Turning to “MGHHHHHHSHMDLSYALETVLNKQFPSSPQDVLGELQFAFVCFLLGNVYEAFEHWKRLLNLLCRSEAAMMKHHTLYINLISILYHQLGEIPADFFVDIVSQDNFLTSTLQVFFSSACSIAVDATLRKKAEKFQAHLTKKFRWDFAAEPEDCAPVVVELPEGIEMG”, the “soluble on expression in E. coli” value was “not soluble”.

For “SLSGNYLPRNTLVESLGHAMLKLSGWKIEGQLPALDKFVVIGAHHTSNWDFVAFLAAKFVLRLNARWFGKHTLFNGPLGGLMRRWGGIPIQRHLKLNTVDQAIQAFREHREFMLIIAPEGTRKKVDRWRMGFYHIARGAGVPVVPAALDYENRRIVIGEPFWPTGNEDADLCSLIGFYRPFIPKKPHYAFLGDEG”, the “soluble on expression in E. coli” value is recorded as “not soluble”. For the sequence “MSLAVLDSGGGSALLKMGRQCEVGSQAYDSSTVSSNLQKAETNGPVGLAGTAEQEQQYDVHGNVISAAVYQKFHVYGPEDMVFDGDAGGLTIPGAGAFWGTLFTSDLQRLYKDTVSFQYNALGTYLNINFFDSSGGFLGHIQAGAVSAVVGVGGGSGSWHNWEVAEGHHHHHH”, the “soluble on expression in E. coli” value is recorded as “soluble”. On to “GKHTVPYTISVDGITALHRTYFVFPENKKVLYQEIDSKVKNELASQRGVTTEKINNAQTATYTLTLNDGNKKVVNLKKNDDAKNSIDPSTIKQIQIVVK”, for which the “soluble on expression in E. coli” value is recorded as “soluble”. As to “MNLNPAHINEPVQKEFLSVIKEYERVIYKVCYLYTTRNATLGDLYQEVILNLWKAYPKFRKECKISTWIYRIALNTCISFIRKEKNVPEIVALTREADWMTEEKDELTEMLRQLYRMINQLGQLDKSIVLLYLEEKSYEEIAEITGLTVTNVATKLSRIKDKLKKMKKEE”, the “soluble on expression in E. coli” value is on record as “not soluble”. On to “MGSDKIHHHHHHMSGHKCSYPWDLQDRYAQDKSVVNKMQQKYWETKQAFIKATGKKEDEHVVASDADLDAKLELFHSIQRTCLDLSKAIVLYQKRICFLSQEENELGKFLRSQGFQDKTRAGKMMQATGKALCFSSQQRLALRNPLCRFHQEVETFRHRAISDTWLTVNRMEQCRTEYRGALLWMKDVSQELDPDLYKQMEKFRKVQTQVRLAKKNFDKLKMDVCQKVDLLGASRCNLLSHMLATYQTTLLHFWEKTSHTMAAIHESFKGYQPYEFTTLKVWKLEGPLENLEKSKVLFISQAKSIAESIIIPGLRMLKRELCPQQSLFLSFFLFFYCIRIQYNENLLQSKSAN”, for which the “soluble on expression in E. coli” value was “not soluble”. The result for “MNRQIVRSALFVPATRPERIPKALASGADRVIVDLEDAVEEGLKVEARANLRRFLVDTPEARVLVRINAAEHPGHADDLALCRDHAGVIGLLLPKVESAAQVRHAAVASGKPVWPIVESARGLAALGEIAAAAGVERLSFGSLDLALDLDLNSGSNAAEQILGHARYALLLQTRLAGLAPPLDGVYPAIQNRAGLVEAVRFARDMGFGGLLCIHPSQVEPIHQTLMPSPAELEWARRVAEAGASGAGVFVVDGEMVDAPVLGRARRLLERAGEGG” reads “not soluble”; that for “MGSDKIHHHHHHMNIFDNILSSATIFKNRDVLRHSYTPEKLPHREEQINQLALLLSPMLRGGTPSNIFIYGKTGTGKTATVLFVARQLEEASRKAKLNVAVHYINCEIVDTAYRVLASLARKFGSNVPMTGWPTDQVYEEVKKALERRGTRVVVILDEIDKLVKKAEEALYGLTRINSELENSSICIVGISNNLKFKEYLDARILSSLSEEEIVFPPYNAEQLEDILQQRAKLAFEDGVLEDGVIQLCAAIAAQEHGDARKALDLLRVSAEIAERERDSMVRVEHVKKAVRKIETDYMIETVRTLPVHSKILLYSMSLISENSPKFTTGEVYCVYKKLCGKVGVDPLTQRRISDLISELDMLGILNSVVISKGRYGRTREMKLEADEKVLRKALEEDYRLQNLRKFEGELKKLANLNLFQF”, “not soluble”. As to “MRMTINRYNFQALWNRMCMILTSKGGELKFGEIIPDTKRSEMKIGKTLYIVNSRYNGKENIIDKFKRLITRKLESQSKGN”, the “soluble on expression in E. coli” value is “not soluble”.

Values taken from the DeepSol protein solubility set.
